Source: patent US6451314B1, “MHC conjugates useful in ameliorating autoimmunity” (Anergen, Inc., priority 1988, dated 2002)

Columns and labels:
Lewis rats = assay: Therapeutic treatment of clinical stage 1 EAMG
RT1.D = assay: Peptide loading of rat MHC II (nitrocellulose filter binding and TLC); conditions: 50-fold molar excess peptide, 37° C., 24 hours
Description: (§1) Rat MHC II Purification and Peptide Loading. Rat class II RT1.B and RT1.D molecules were detergent solubilized (0.5% NP-40, 10 mM Tris HCl pH 8.3, 1 mM PMSF, 0.02% NaN3) from homogenized spleens and purified by affinity chromatography with monoclonal antibodies OX 6 and […]. The RT1.B/D mixture was incubated at 37° C. for 24 hours with a 50-fold molar excess of peptide AChRα 100-116, followed by 24 hours of dialysis at 4° C. against 0.1% OG/PBS to remove unbound peptide. […] This complex is stable at 4° C. for at least 8 weeks.

RT1.B = assay: as above; conditions: 50-fold molar excess peptide, 37° C., 24 hours
Description: as §1

[1] = tested on: T cell clones AJ1.2 and 4R3.4; assay: Proliferation (MTT uptake) of T cell clones with APC and MBP(1-13) after preincubation; format: cell-based, mouse; conditions: preincubation five hours at 37° C., 72-hour incubation
Description: The effects of detergent-solubilized Class II molecules were examined by culturing 1×10^5 AJ1.2 or 4R3.4 cells with 50-100 ul of purified I-A^k alone, purified I-A^k plus MBP(1-13) and medium alone for five hours at 37° C. in 5% CO2. Following this incubation the cells were diluted to 900 ul and tested for their ability to respond to antigen-presenting cells (APC) and antigen [MBP(1-13)] in a proliferation assay. Uptake of 3-(4,5-dimethyl-thiazol-2-7′)-2,5 diphenyltetrazolium bromide (MTT) was used as an indication of cell proliferation.
Data are presented as % suppression of proliferation of cells incubated with Class I+Ag compared to cells cultured with medium alone and were calculated by using the formula:
Therefore, 4R3.4 or AJ1.2 cells were preincubated with 50-100 ul of I-A^k+MBP(1-13), I-A^k, or medium alone for five hours at 37° C. The cells were then diluted to an appropriate concentration and added to APC. Antigen [MBP(1-13)] was added to a final concentration ranging from 13.3 um to 53.2 um.
APC used in the study were prepared from spleens of female A/J mice. […] Following this incubation, spleen cells were washed five times with RPMI containing antibiotics, counted, and used as APC's.
Following a 72-hour incubation period of the cells with APC and MBP(1-13), the extent of proliferation was quantitated using MTT uptake. […]

[2] = Serum half-life of 125I-labeled I-A^s, effect of liposomes; format: in vivo, mice; conditions: Sets 1 and 2: 10 μg, injected without blank liposomes
Description: (§2) The protocol for these studies was generally as follows: Affinity-purified, soluble MHC molecules were labeled with ^125I by the iodobeads method (Pierce Chemical Co., Rockford, Ill. Excess ^125I was removed by dialysis against PBS containing 0.1% neutral detergent. The quality of the labeled protein was assessed by thin layer chromatography, cellulose acetate electrophoresis, and polyacrylamide gel electrophoresis. The MHC glycoprotein was administered by tail vein injection to mice subjected to Lugol's solution in the drinking water at least one day before injection. Blood samples were obtained at different time points. The animals were then sacrificed to obtain organs of interest. Radioactivity in the blood and organ samples was detected in a gamma well counter according to standard techniques.
I-A^s was labeled as described above. The labeled I-A^s molecules were captured inside liposomes by standard procedures (see, e.g., Remingtion's, supra). Ten mice were injected with 10 μg I-A^s, as described above, and divided into four sets: (1) I-A^s alone; (2) liposomal I-A^s; (3) liposomal I-A^s coinjected with blank liposomes; and (4) blank liposomes plus, 10 minutes later, liposomal I-A^s coinjected with blank liposomes. Blood samples were obtained at different time points after injection, and the percent of injected dose of I-A^s retained in the blood was calculated.

[3] = Serum half-life of 125I-labeled I-A^k, effect of periodate/cyanoborohydride treatment; format: in vivo, mice; conditions: 10 μg i.v.
Description: as §2
I-A^k in a phosphate buffer containing 3 mM taurodeoxycholate at pH 7.5 was labeled as described above. The labeled molecules were subjected to periodate oxidation and cyanoborohydride reduction for 5 or 21 hours at 4° C., using 20 mM sodium periodate and 40 mM cyanoborohydride (final concentrations) in 0.1 M acetate buffer at pH 5.5. The reaction was quenched by addition of ethylene glycol (final concentration 0.7%). […] Blood samples were obtained at different time points and the percent of injected dose of I-A^k retained in the blood was calculated.

[4] = Serum half-life of 125I-labeled I-A^k, effect of asialoletuin; format: in vivo, mice
Description: as §2
IA^k was labeled and administered to mice as described above. The mice were divided into three sets: (1) I-A^k (10 μg i.v.); (2) I-A^k (10 μg i.v.) plus asialoletuin (10 mg i.v.) plus asialoletuin (100 mg i.p.); and (3) I-A^k (10 μg i.v.) plus asialoletuin (10 mg i.p.). Blood was drawn at different time points and the percent of injected dose retained in the blood was calculated.

Molecule | clinical stage of representative rat (Lewis rats; 61 days post EAMG induction) | clinical stage of representative rat (Lewis rats; 123 days post EAMG induction) | survival frequency (Lewis rats; 140 days post-induction, five weekly i.v. injections from clinical stage 1) | fraction of RT1.D that bound peptide (RT1.D) | fraction of RT1.B that bound peptide (RT1.B) | proliferation in presence of APC and MBP(1-13) [1] | serum mean half-life [2] | serum half-life [3] | mean serum half-life ([4]; Set 1: I-A^k 10 μg i.v.) | mean serum half-life ([4]; Set 2: I-A^k 10 μg i.v. plus asialoletuin 10 mg i.v. plus asialoletuin 100 mg i.p.) | mean serum half-life ([4]; Set 3: I-A^k 10 μg i.v. plus asialoletuin 10 mg i.p.)
YAIVHMTKLLLDYPGKI [AChRα 100-116, Torpedo AChRα subunit peptide 100-116] | 2.5 | Dead (day 66) | 0% | 90-100% | 70-80% | – | – | – | – | – | –
I-A^k: mouse Class II MHC glycoprotein I-A^k purified by affinity chromatography on 10-2.16 antibody (protein) MHC II alpha: EDDIEADHVGSYGITVYQSPGDIGQYTFEFDGDELFYVDLDKKETVWMLPEFAQLRRFEPQGGLQNIATGKHNLEILTKRSNSTPATNEAPQATVFPKSPVLLGQPNTLICFVDNIFPPVINITWLRNSKSVTDGVYETSFFVNRDYSFHKLSYLTFIPSDDDIYDCKVEHWGLEEPVLKHWEPEIPAPMSELTE MHC II beta: GNSERHFVHQFQPFCYFTNGTQRIRLVIRYIYNREEYVRFDSDVGEYRAVTELGRPDAEYWNKQYLERTRAELDTVCRHNYEKTETPTSLRRLEQPSVVISLSRTEALNHHNTLVCSVTDFYPAKIKVRWFRNGQEETVGVSSTQLIRNGDWTFQVLVMLEMTPRRGEVYTCHVEHPSLKSPITVEWRAQSESARSK | – | – | – | – | – | proliferated to the same extent as cells cultured in medium | 2 min | 4 min | 3 min | 40 min | 35 min
